Assay results published in article PMC8720176.
Like-named read-outs stand apart in the source and are kept apart here.

Experiments:
Experiment in all cases: X-ray crystallography
Δ30-EXO5 WT [1] = molecular target: T1, Δ30-EXO5 WT (Homo sapiens, UniProt Q9H790 31-373, del1-30)
T1 sequence: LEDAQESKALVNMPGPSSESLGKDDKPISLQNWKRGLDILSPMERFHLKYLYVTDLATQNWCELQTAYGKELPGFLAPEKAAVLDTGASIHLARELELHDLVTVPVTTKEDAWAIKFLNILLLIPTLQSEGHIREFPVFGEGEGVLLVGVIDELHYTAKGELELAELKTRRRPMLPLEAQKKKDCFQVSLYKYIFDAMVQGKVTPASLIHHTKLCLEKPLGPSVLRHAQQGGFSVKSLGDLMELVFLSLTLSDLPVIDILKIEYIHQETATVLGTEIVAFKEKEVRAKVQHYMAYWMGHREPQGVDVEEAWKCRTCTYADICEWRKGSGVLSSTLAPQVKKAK

T88E-Δ30-EXO5 = molecular target: T2, T88E-Δ30-EXO5 (Homo sapiens, UniProt Q9H790 31-373, T88E;del1-30)
T2 sequence: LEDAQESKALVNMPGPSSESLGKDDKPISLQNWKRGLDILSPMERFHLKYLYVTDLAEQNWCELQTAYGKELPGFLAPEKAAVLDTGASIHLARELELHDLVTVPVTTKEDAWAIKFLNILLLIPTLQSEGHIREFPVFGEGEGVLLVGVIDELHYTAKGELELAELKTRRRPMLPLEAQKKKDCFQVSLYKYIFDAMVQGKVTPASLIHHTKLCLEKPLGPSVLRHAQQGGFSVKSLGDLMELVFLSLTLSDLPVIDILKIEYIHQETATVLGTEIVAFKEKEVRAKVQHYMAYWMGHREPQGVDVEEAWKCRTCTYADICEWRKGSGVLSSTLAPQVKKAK

Δ30-EXO5 WT [2] = molecular target: T1, Δ30-EXO5 WT; remark: listed apart in the source

TTTTTTTTTTTT (ssDNA, 3' thiol modifier C3 S-S) [dT12]
binding result (Δ30-EXO5 WT [1]): binds | binding result (T88E-Δ30-EXO5): binds

ATTGCTGAAGGG (ssDNA) [12mer]
binding result (Δ30-EXO5 WT [2]): binds
